The values below are quoted from earlier work in PMC7556843.

In general, Kd refers to the free concentration of one partner at which half of the binding sites on the other are occupied at equilibrium, for simple one-to-one binding.

Data set [1] has as its target linear tetraubiquitin (Ub4) (Homo sapiens) (UniProt P0CG47).
For data set [2], the target named is linear diubiquitin (Ub2) (Homo sapiens) (UniProt P0CG47).

NEMO 242-419, sequence (Q9Y6K9 242-419): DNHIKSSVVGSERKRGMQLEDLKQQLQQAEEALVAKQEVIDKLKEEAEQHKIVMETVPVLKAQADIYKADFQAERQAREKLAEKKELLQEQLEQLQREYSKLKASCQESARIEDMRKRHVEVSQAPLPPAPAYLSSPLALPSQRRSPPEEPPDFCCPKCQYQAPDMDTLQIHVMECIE

In the case of NEMO 242-419 (from UniProt Q9Y6K9), the Kd in data set [1] is 300 nM; in data set [2], 3000 nM.
